Earlier results on 1 substance are cited in paper PMC2895966.

This series addresses Pyrrhocoricin (Pyrrhocoris apterus) (UniProt P37362).

Chain of Pyrrhocoricin (Pyrrhocoris apterus) (P37362 whole entry): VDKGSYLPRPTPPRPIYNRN
Chain of DnaK SBD (P0A6Y8 389-607): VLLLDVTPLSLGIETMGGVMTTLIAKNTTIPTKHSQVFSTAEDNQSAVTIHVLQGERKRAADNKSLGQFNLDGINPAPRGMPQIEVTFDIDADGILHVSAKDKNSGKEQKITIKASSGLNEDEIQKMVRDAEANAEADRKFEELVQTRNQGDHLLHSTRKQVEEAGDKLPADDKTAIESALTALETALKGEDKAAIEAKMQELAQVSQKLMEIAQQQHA

The Kd is the concentration at which binding is half-saturated. Consider DnaK SBD (from UniProt P0A6Y8), for which the Kd was 50 µM.
